Entries after “also recorded” stand apart in the source; their conditions may differ. Counter-ions that a name gives are not always drawn.
Legend:
[1] = tested on: TRAIL-R1 expression on HIV-1 infected macrophages; format: cell-based, human
[2] = tested on: HIV-1 infected macrophages; assay: Cell Death ELISA for histone-associated DNA fragmentation after Imatinib alone; format: cell-based, human; conditions: Imatinib alone 24 or 120 hours, no exogenous TRAIL, five days after infection
Procedure: ELISA for Caspase-3 cleavage (to active form) was obtained from Cell Signaling Technologies (Beverley Mass.). Briefly, 1.4×10^6 macrophages infected with WT and envelope-minus viruses were lysed according to the supplier's protocol, 1 hour after the addition of soluble recombinant Trail (100 ng ml-1). Protein content was determined by Bradford Assay (Bio-Rad, Hercules Calif.) and 220 μg of protein in 200 μl from each culture was assayed. ELISA for supernatant release of histone associated DNA fragments released after induced cell death (Roche, Nutley N.J.) was used to measure macrophage longevity. […] In some experiments an MTT assay (Sigma, St. Louis Mo.) was used to measure cell viability. Fluorescent detection of active caspases was performed by pre-treating cells with red-VAD-FMK and flow cytometry according to the manufacturer's protocol (EMD biosciences). For the measurement of apoptosis by Annexin V and propidium iodide staining in flow cytometry reagents were obtained from BioVision (Mountain View Calif.) and used according to the supplier's protocol.

[3] = tested on: Bcl-2, Mcl-1, BclXL, BimL, Bmf and cFLIP; assay: Western blotting of pro- and anti-apoptotic proteins in the TRAIL signaling pathway; format: cell-based, human; conditions: HIV-1 LAI WT infected macrophages, 2 μM Imatinib 16 hours
Procedure: FIG. 11 provides a set of six protein immunoblot images. […] Protein levels of Bcl-2, Mcl-1, BClxL, BimL, Bmf and cFLIP were determined by Western blotting.
It has been shown that envelope induces over-expression of anti-apoptotic genes, Mcl-1, Bfl-1, cIAP-1, cIAP-2 and XIAP, that function in preventing mitochondrial and caspase-mediated apoptosis by TRAIL (Salvesen and Duckett, 2002; Zhang & Fang, 2005; Han et al., 2006).

[4] = in vivo; cited from earlier work
[5] = tested on: HIV-1 infected macrophages; assay: Apoptosis by Annexin V and propidium iodide staining and flow cytometry; format: cell-based, human; conditions: TRAIL exposure without Imatinib treatment
[6] = tested on: HIV-1 LAI infected macrophages; assay: Macrophage viability with increasing concentrations of TRAIL (MTT assay); format: cell-based, human; conditions: 16 hours
Procedure: FIG. 5. provides three graphs showing that cell viability and virus production in the presence of TRAIL requires an intact envelope gene and is augmented by M-CSF. Macrophage viability and virus production in the presence of increasing concentrations of TRAIL is shown in FIG. 5A and FIG. 5B, respectively. Four days after infection with pseudotyped HIV-1 LAI WT or Δenv viruses, macrophages were incubated with increasing concentrations of soluble TRAIL and cell viability (FIG. 5A) and virus production (FIG. 5B) determined after 16 hours by MTT assay and reverse transcriptase production, respectively. Activated CD8+ T cells suppress viral replication in macrophages via TRAIL (FIG. 5C). Macrophages were infected with pseudotyped wild-type or envelope-minus HIV-1 LAI variants and monitored for virus production in a 24 hour period after incubation with Anti-CD3/CD28 stimulated autologous CD8+ TRAIL+T lymphocytes for 4 hours. Macrophages were pre-treated for 16 hours with M-CSF neutralizing antibody or isotype control and T cells were preincubated with recombinant TRAIL-R1 or control receptor (5 μg·ml-1) for 1 hour. […]
ELISA for Caspase-3 cleavage (to active form) was obtained from Cell Signaling Technologies (Beverley Mass.). […] Protein content was determined by Bradford Assay (Bio-Rad, Hercules Calif.) and 220 μg of protein in 200 μl from each culture was assayed. […]

HIV-1 LAI = assay: Virus production with increasing concentrations of TRAIL (reverse transcriptase); format: cell-based, human; conditions: 16 hours
Procedure: FIG. 5. provides three graphs showing that cell viability and virus production in the presence of TRAIL requires an intact envelope gene and is augmented by M-CSF. Macrophage viability and virus production in the presence of increasing concentrations of TRAIL is shown in FIG. 5A and FIG. 5B, respectively. Four days after infection with pseudotyped HIV-1 LAI WT or Δenv viruses, macrophages were incubated with increasing concentrations of soluble TRAIL and cell viability (FIG. 5A) and virus production (FIG. 5B) determined after 16 hours by MTT assay and reverse transcriptase production, respectively. Activated CD8+ T cells suppress viral replication in macrophages via TRAIL (FIG. 5C). Macrophages were infected with pseudotyped wild-type or envelope-minus HIV-1 LAI variants and monitored for virus production in a 24 hour period after incubation with Anti-CD3/CD28 stimulated autologous CD8+ TRAIL+T lymphocytes for 4 hours. Macrophages were pre-treated for 16 hours with M-CSF neutralizing antibody or isotype control and T cells were preincubated with recombinant TRAIL-R1 or control receptor (5 μg·ml-1) for 1 hour.
The differential sensitivity of wild type and envelope minus HIV-1 infected macrophages to TRAIL-mediated cell killing correlated with the concentration of TRAIL required to impact cell viability and virus production. […]

[7] = tested on: HIV-1 infected macrophages; assay: Macrophage half-life in the presence of TRAIL (cell death ELISA); format: cell-based, human; conditions: soluble TRAIL 100 ng·ml-1
Procedure: (§1) Macrophages were infected with pseudotyped wild-type or envelope-minus HIV-1 LAI variants and monitored for virus production (FIG. 4A). At 8 days post infection, cultures were incubated with soluble TRAIL (100 ng·ml-1) and apoptosis determined by ELISA for active (cleaved) Caspase 3. […] Macrophage cultures, equally infected with pseudotyped HIV-1 LAI WT or Δenv viruses or mock infected, were examined by phase contrast microscopy after incubation with 100 ng/ml TRAIL (1 hour treatment with TRAIL followed by 5 hours incubation after removal of TRAIL). […] Eight days after infection with pseudotyped HIV-1 LAI WT or Δenv viruses, macrophages were incubated with soluble TRAIL (100 ng·ml-1) and percentage of viable cells remaining extrapolated from the level of cell death determined from ELISA. Macrophage half-life was calculated from the linear regression slope and expressed in hours+/−SD.
Macrophages are a long-lived reservoir of HIV in vivo and a source of viral rebound (reviewed in Stevenson, 2003). The evasion of apoptosis in other human viral infections contributes to viral persistence and enables the infected cell to survive in the face of a hostile microenvironment (Raftery et al., 2001; Secchiero et al., 2001; Tollefson et al. 1998; Tollefson et al. 2001). Therefore we determined the half-life of HIV-1 infected macrophages in the presence of a concentration of TRAIL capable of inducing apoptosis. […] Thus resistance to TRAIL can potentially provide a significant advantage to macrophages infected by HIV-1.
ELISA for Caspase-3 cleavage (to active form) was obtained from Cell Signaling Technologies (Beverley Mass.). Briefly, 1.4×10^6 macrophages infected with WT and envelope-minus viruses were lysed according to the supplier's protocol, 1 hour after the addition of soluble recombinant Trail (100 ng ml-1). Protein content was determined by Bradford Assay (Bio-Rad, Hercules Calif.) and 220 μg of protein in 200 μl from each culture was assayed. […]

[8] = tested on: HIV-1 infected macrophages; assay: TRAIL-mediated apoptosis by ELISA for active (cleaved) Caspase 3; format: cell-based, human; conditions: HIV-1 WT infected macrophages, Day 2
Procedure: as §1
Relationship of apoptosis by TRAIL, M-CSF release and TRAIL-R1 expression in macrophages infected with pseudotyped wild type or envelope minus HIV-1 HSA viruses. In FIG. 6A, M-CSF release as a function of time was determined by ELISA. In FIG. 6B, TRAIL-R1 expression as a function of time was measured by flow cytometry. In FIG. 6C, TRAIL-mediated apoptosis in macrophages was analyzed by ELISA for active (cleaved) Caspase 3 in parallel cultures during the infection (Error bars, SD). […]

[9] = macrophages infected with pseudotyped HIV-1 LAI Δenv
[10] = macrophages infected with pseudotyped wild type HIV-1 LAI

Cc1ccc(NC(=O)c2ccc(CN3CCN(C)CC3)cc2)cc1Nc1nccc(-c2cccnc2)n1 [Imatinib, Imatinib mesylate]
TRAIL-R1 expression on uninfected macrophages ([1]; uninfected macrophages, also those in cultures of infected cells, Imatinib 16 hours): did not promote TRAIL-R1 expression
apoptosis (histone-associated DNA fragmentation) of wild-type-infected macrophages [2]: results in apoptosis of wild-type-infected macrophages; also recorded: removed the requirement for exogenous TRAIL
expression of pro- and anti-apoptotic proteins [3]: cause a shift in the expression of the proteins in favor of cellular apoptosis
bioavailability to the brain [4]: poor bioavailability to the brain

B1: exogenous M-CSF: recombinant macrophage colony stimulating factor added to macrophage cultures (protein, UniProt P09603 33-554, looked up)
Macrophage colony-stimulating …: EEVSEYCSHMIGSGHLQSLQRLIDSQMETSCQITFEFVDQEQLKDPVCYLKKAFLLVQDIMEDTMRFRDNTPNAIAIVQLQELSLRLKSCFTKDYEEHDKACVRTFYETPLQLLEKVKNVFNETKNLLDKDWNIFSKNCNNSFAECSSQDVVTKPDCNCLYPKAIPSSDPASVSPHQPLAPSMAPVAGLTWEDSEGTEGSSLLPGEQPLHTVDPGSAKQRPPRSTCQSFEPPETPVVKDSTIGGSPQPRPSVGAFNPGMEDILDSAMGTNWVPEEASGEASEIPVPQGTELSPSRPGGGSMQTEPARPSNFLSASSPLPASAKGQQPADVTGTALPRVGPVRPTGQDWNHTPQKTDHPSALLRDPPEPGSPRISSLRPQGLSNPSTLSAQPQLSRSHSSGSVLPLGELEGRRSTRDRRSPAEPEGGPASEGAARPLPRFNSVPLTDTGHERQSEGSFSPQLQESVFHLLVPSVILVLLAVGGLLFYRWRRRSHQEPQRADSPLEQPEGSPLTQDDRQVELPV
TRAIL-R1 expression ([1]; macrophages infected with an envelope defective virus, exogenous M-CSF 16 hours): down-regulated TRAIL-R1

B2: TRAIL: soluble human recombinant TRAIL (TNF-related apoptosis-inducing ligand) obtained from Axxora LLC (protein, UniProt P50591 39-281, looked up)
extracellular domain: TNELKQMQDKYSKSGIACFLKEDDSYWDPNDEESMNSPCWQVKWQLRQLVRKMILRTSEETISTVQEKQQNISPLVRERGPQRVAAHITGTRGRSNTLSSPNSKNEKALGRKINSWESSRSGHSFLSNLHLRNGELVIHEKGFYYIYSQTYFRFQEEIKENTKNDKQMVQYIYKYTSYPDPILLMKSARNSCWSKDAEYGLYSIYQGGIFELKENDRIFVSVTNEHLIDMDHEASFFGAFLVG
modifications: extracellular domain
notes: soluble human recombinant TRAIL (TNF-related apoptosis-inducing ligand) obtained from Axxora LLC
apoptosis of infected macrophages [5]: 3.9%
TRAIL concentration effecting ~50% reduction in cell viability [6, 9]: 3 ng/mL
TRAIL concentration required for ~50% reduction in viability [6, 10]: > 30 ng/mL
TRAIL concentration effecting ~50% reduction in virus output (HIV-1 LAI; [9]): 3 ng/mL
TRAIL concentration required for ~50% reduction in virus output (HIV-1 LAI; [10]): > 50 ng/mL
macrophage half-life in the presence of TRAIL ([7]; HIV-1 Δenv infected macrophages): around 36 hours
macrophage half-life in the presence of TRAIL ([7]; mock infected cultures): 81 h
macrophage half-life in the presence of TRAIL ([7]; wild type infected cultures): 110 h
TRAIL-induced active caspase 3 elevation [8]: 3 fold
